According to US10533050B2, “Methods and compositions for liver cancer therapy” (Institut National de la Sante et de la Recherche Medicale …, priority 2010, dated 2020):

Experiments:
Format in all cases: cell-based
[1] = tested on: side population cells of Huh7 cells; assay: Spheroid formation of Huh7 side population cells under low adherence culture conditions; settings: 5 nM doxorubicin, 9 days; FIG. 9
Method: The dye excluding side population cells of Huh7 cells were isolated as described in Example 8. Side population cells were then seeded into ultra low adherence 96-well plates (200 cells/well) in M11 medium, and grown for 9 days at 37° C. in the presence of control or anti-progastrin polyclonal antibodies (1 μg/ml), 5 nM doxorubicin (a chemotherapeutic agent used in certain liver cancer therapy), or DMSO (vehicle for doxorubicin) (15 wells per condition). The composition of M11 medium was as follows: DMEM/F12-Glutamax (Catalog #31331 Invitrogen); 20 ng/ml EGF (R&D systems); 10 ng/ml FGF (R&D systems); 20 microg/ml Insulin (Sigma); 1/100 dilution of N2 supplement (Catalog #P1510, Gibco); 2 μg/ml ciprofloxacin, 5 μg/ml gentamycin and 3 μg/ml glucose. At the end of the experiment, photomicrographs were taken, and the number of spheres per well counted and the mean and standard deviation calculated.
The dye excluding side population cells of Huh7 cells were isolated as described in Example 8. […] At the end of the experiment, photomicrographs were taken, and the number of spheres per well counted and the mean and standard deviation calculated.

liver cancer cells = assay: Neutralizing activity with liver cancer cells; settings: tests with liver cancer cells
Method: A specific test for assessing whether a particular anti-hPG antibody is neutralizing can be performed as follows. Huh7 hepatocellular carcinoma cells are seeded in ultra low-adherence 24-well plates (500 cells/well) in serum-free M11 medium. Cells are grown at 37° C. and treated twice daily for 7 days with the test anti-hPG antibody or a control, non-specific monoclonal antibody, at antibody concentrations of about 5 μg/mL. At the end of the experiment, photomicrographs are taken, and the number of spheres per well is counted and the median and percentile distribution calculated.

[2] = tested on: PLC/PRL/5 hepatocellular carcinoma cells; assay: Spheroid formation of PLC/PRL/5 cells under low adherence culture conditions; settings: vs control MAb
Method: PLC/PRL/5 hepatocellular carcinoma cells were seeded in ultra low-adherence 24-well plates (220 cells/well) in serum-free M11 medium (DMEM/F12 with 20 ng/ml EGF, 10 ng/ml FGF, 20 μg/ml insulin, N2 supplement, 2 μg/ml ciprofloxacin, 5 μg/ml gentamycin and 3 μg/ml glucose). Cells were grown for 10 days at 37° C., with the daily addition of control or anti-hPG MAb3 monoclonal antibodies (1 μg/ml). At the end of the experiment, photomicrographs were taken, and the number of spheres per well counted and the mean and standard deviation calculated. In one experiment, PLC/PRL/5 hepatocellular carcinoma cells were seeded in ultra low-adherence 96-well plates (35 cells/well) in serum-free M11 medium (DMEM/F12 with 20 ng/ml EGF, 10 ng/ml FGF, 20 μg/ml insulin, N2 supplement, 2 μg/ml ciprofloxacin, 5 μg/ml gentamycin, and 3 μg/ml glucose). […] At the end of the experiment, photomicrographs were taken, and the number of spheres per well counted and the median and percentile distribution calculated. […] At the end of the experiment, photomicrographs were taken, and the number of spheres per well counted and the median and percentile distribution calculated. […] At the end of the experiment, photomicrographs were taken, and the number of spheres per well counted and the median and percentile distribution calculated.

[3] = tested on: Huh7 hepatocellular carcinoma cells; assay: Spheroid formation of Huh7 cells after antibody pre-treatment under regular adherence; settings: pre-treatment with 10 μg/mL, then 5 days without treatment, vs control MAb; FIG. 13A-B
Method: In one experiment, 75,000 Huh7 hepatocellular carcinoma cells/well were first seeded into 6-well plates in MEMα with 10% FCS, serum starved overnight and grown for 60 hours in MEMα+0.5% Pannexin H in the presence of 10 μg/mL anti-progastrin monoclonal antibody MAb8 or control monoclonal antibody (P3X63Ag8, ATCC, Ref TIB-9). At the end of treatment, for each treatment group, 500 cells/well were plated into eight wells of ultra low-adherence 24-well plates in 500 μl of serum-free M11 medium containing bFGF and EGF, and grown for a further 5 days without treatment. At the end of this period, photographs were taken, the number of spheres per well was counted, and sphere surface was measured. […] Thereafter, an operator who was blinded to the identity of all wells counted the spheroids.
In a second experiment, 75,000 Huh7 hepatocellular carcinoma cells/well were first seeded into 6-well plates in MEMα with 10% FCS, serum starved overnight and grown for 60 hours in MEMα+0.5% Pannexin H in the presence of 10 μg/mL anti-progastrin monoclonal antibody MAb16 or a control monoclonal antibody (P3X63Ag8, ATCC, Ref TIB-9). […] At the end of this period, photographs were taken, the number of spheres per well was counted, and sphere surface was measured. […] Thereafter, an operator who was blinded to the identity of all wells counted the spheroids.

COc1cccc2c1C(=O)c1c(O)c3c(c(O)c1C2=O)C[C@@](O)(C(=O)CO)C[C@@H]3O[C@H]1C[C@H](N)[C@H](O)[C@H](C)O1 [Doxorubicin, doxorubicin]
Number of spheroids formed [1]: reduce the number of spheroids

B1: MAb19: murine N-terminal anti-hPG monoclonal antibody, hybridoma 1B3B4F11, VH SEQ ID NO:62, VL SEQ ID NO:66 (antibody, V domains shown)
VH: DVQLQESGPGLVKPSQSLSLTCTVTGYSITSDYAWNWIRQFPGNKLEWMGYISFSGYTSYNPSLKSRISVTRDTSRNQFFLQLTSVTTEDTATYYCAREVNYGDSYHFDYWGQGTIVTVSS
VL: QLALTQSSSASFSLGASAKLTCTLSSQHRTYTIEWYQQQSLKPPKYVMEVKKDGSHSTGHGIPDRFSGSSSGADRYLSISNIQPEDEAIYICGVGDAIKGQSVFVFGGGTKVTVL
Neutralizing activity (liver cancer cells): exhibited neutralizing activity
Number of spheroids formed ([2]; 3 μg/ml twice daily, 8 days, FIG. 15A): significantly reduced

B2: MAb3: murine N-terminal anti-hPG monoclonal antibody, hybridoma 6B5B11C10, VH SEQ ID NO:12, VL SEQ ID NO:13 (antibody, V domains shown)
VH: EVQLQQSGTVLARPGASVKMSCKASGYIFTSYWVHWVKQRPGQGLEWIGGFYPGNSDSRYNQKFKGKATLTAVTSASTAYMDLSSLTNEDSAVYFCTRRDSPQYWGQGTTLTVSS
VL: DVLMTQTPLSLPVSLGDQASISCRSSQSIVHSNGNTYLEWYLQKPGQSPKLLIYKVSNRFSGVPDRFSGSGSGTDFTLKISRLEAEDLGVYYCFQGSHVPFTFGGGTKLEIK
Neutralizing activity (liver cancer cells): exhibited neutralizing activity

B3: MAb8: murine C-terminal anti-hPG monoclonal antibody, hybridoma 1C10D3B9, VH SEQ ID NO:59, VL SEQ ID NO:63 (antibody, V domains shown)
VH: EVQLVESGGGLVKPGGSLKLSCAASGFTFTTYAMSWVRQTPEKRLEWVATISSGGTYTYYPDSVKGRFTISRDNAKNALYLQMSSLRSEDTAMYYCATQGNYSLDFWGQGTSLTVSS
VL: DIVMTQAASSNPVTLGTSASISCRSSKSLRHTKGITFLYWYLQKPGQSPQLLIYQMSNLASGVPDRFSSSGSGTDFTLRISRVEAEDLGVYYCAQNLELPLTFGAGTKLELK
Ability to grow as spheroids [3]: significantly reduced
Neutralizing activity (liver cancer cells): exhibited neutralizing activity
Number of spheroids formed ([2]; 6 μg/ml twice daily, 7 days, FIG. 15C): significantly reduced
